Target: PALB2 construct (UniProt Q86YC2)
Experiment: ITC; BRCA1 (control 0.6 mM, 17 injections; modified 0.255 mM, 32 injections) titrated into PALB2 at 0.06 mM in the cell; 25 °C; 50 mM NaCl, 25 mM sodium phosphate, pH 6.5; single binding site model

UniProt Q86YC2, sequence (Q86YC2 whole entry): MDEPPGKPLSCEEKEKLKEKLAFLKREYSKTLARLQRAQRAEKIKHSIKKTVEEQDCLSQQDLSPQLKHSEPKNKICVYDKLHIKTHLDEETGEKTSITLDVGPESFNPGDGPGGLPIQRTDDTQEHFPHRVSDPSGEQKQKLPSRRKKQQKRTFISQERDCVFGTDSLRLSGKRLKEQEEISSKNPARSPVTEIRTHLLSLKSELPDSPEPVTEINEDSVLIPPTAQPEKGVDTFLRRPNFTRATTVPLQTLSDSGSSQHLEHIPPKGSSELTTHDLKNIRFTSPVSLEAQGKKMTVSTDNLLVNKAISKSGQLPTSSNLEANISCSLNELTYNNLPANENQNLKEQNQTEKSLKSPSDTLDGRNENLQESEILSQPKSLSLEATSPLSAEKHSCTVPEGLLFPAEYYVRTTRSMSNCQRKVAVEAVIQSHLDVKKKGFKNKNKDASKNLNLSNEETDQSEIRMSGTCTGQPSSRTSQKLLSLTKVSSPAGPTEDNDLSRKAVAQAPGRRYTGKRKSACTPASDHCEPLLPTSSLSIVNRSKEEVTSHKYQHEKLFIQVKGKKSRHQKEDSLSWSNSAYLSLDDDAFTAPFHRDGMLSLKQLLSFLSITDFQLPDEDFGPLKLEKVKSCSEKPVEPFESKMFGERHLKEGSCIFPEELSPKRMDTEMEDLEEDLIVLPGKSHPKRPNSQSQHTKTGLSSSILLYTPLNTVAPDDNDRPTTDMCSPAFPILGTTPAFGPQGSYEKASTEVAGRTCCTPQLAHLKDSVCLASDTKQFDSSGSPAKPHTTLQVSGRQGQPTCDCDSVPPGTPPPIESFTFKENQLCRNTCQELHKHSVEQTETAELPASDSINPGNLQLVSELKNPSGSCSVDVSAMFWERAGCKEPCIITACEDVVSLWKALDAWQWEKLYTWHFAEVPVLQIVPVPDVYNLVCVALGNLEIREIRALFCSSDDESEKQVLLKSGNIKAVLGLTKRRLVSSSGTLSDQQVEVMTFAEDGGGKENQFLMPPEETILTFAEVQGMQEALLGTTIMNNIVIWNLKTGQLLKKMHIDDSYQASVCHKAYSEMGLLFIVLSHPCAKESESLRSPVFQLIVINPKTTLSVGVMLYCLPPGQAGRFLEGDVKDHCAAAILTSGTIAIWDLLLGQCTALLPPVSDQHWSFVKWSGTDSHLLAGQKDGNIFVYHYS

Kd [µM] | Binder
3 | BRCA1 disordered PALB2-binding domain, residues 1377-1426, modified with dichlorotriazine 1 (indole-labeled) (domain or fragment, a single 272 Da indole incorporation from dichlorotriazine 1; site not determined by MS/MS, the single lysine (residue 1406 in BRCA1) is the intended site) GPGSSVSEDCSGLSSQSDILTTQQRDTMQHNLIKLQQEMAELEAVLEQHGSQPS
4.1 | BRCA1 disordered PALB2-binding domain, residues 1377-1426, control (unmodified) preparation (domain or fragment) GPGSSVSEDCSGLSSQSDILTTQQRDTMQHNLIKLQQEMAELEAVLEQHGSQPS
